Data published in IntAct's records for PubMed 17301792.

B1: Translationally-controlled tumor protein homolog (Drosophila melanogaster (Fruit fly)), Q9VGS2 (parent)
chain: MKIYKDIITGDEMFADTYKMKLVDDVIYEVYGKLITRQGDDIKLEGANASAEEADEGTDITSESGVDVVLNHRLTECFAFGDKKSYTLYLKDYMKKVLAKLEEKSPDQVDIFKTNMNKAMKDILGRFKELQFFTGESMDCDGMVALVEYREINGDSVPVLMFFKHGLEEEKC
partner: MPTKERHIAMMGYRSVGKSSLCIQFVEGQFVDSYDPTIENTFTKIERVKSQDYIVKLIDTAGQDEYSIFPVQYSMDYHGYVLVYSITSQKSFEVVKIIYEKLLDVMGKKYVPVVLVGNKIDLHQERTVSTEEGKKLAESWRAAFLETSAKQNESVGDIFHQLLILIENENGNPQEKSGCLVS

Variants of: B1
Conditions: with rheb_drome Rheb

| Variant | effect of a mutation on the interaction |
| --- | --- |
| MKIYKDIITGDVMFADTYKMKLVDDVIYEVYGKLITRQGDDIKLEGANASAEEADEGTDITSESGVDVVLNHRLTECFAFGDKKSYTLYLKDYMKKVLAKLEEKSPDQVDIFKTNMNKAMKDILGRFKELQFFTGESMDCDGMVALVEYREINGDSVPVLMFFKHGLEEEKC [E12V] | decreasing interaction strength |

Variants of: B1
Conditions: with rheb_drome Rheb
Remark: another data set of the same source

| Variant | effect of a mutation on the interaction |
| --- | --- |
| MKIYKDIITGDVMFADTYKMKLVDDVIYEVYGKLITRQGDDIKLEGANASAEEADEGTDITSESGVDVVLNHRLTECFAFGDKKSYTLYLKDYMKKVLAKLEEKSPDQVDIFKTNMNKAMKDILGRFKELQFFTGESMDCDGMVALVEYREINGDSVPVLMFFKHGLEEEKC [E12V] | disrupting interaction strength |
